This note sets out measurements from patent publication US20130052733A1.

The target of the experiment is mAb LGIII 147.4.1. Put plainly: direct ELISA, capture by mAb LG III 147.4.1, detection with FL119.

Regarding “HLA-A*1101/LMP2340-349-fused β2m (from UniProt P61769 21-119) (peptide-MHC)”, the concentration at which absorbance is saturated was found to be 4 nCM.
